Results published in paper PMC7237333.

Legend:
Experiment in all cases: purified protein
[1] = tested on: CSC[C@H]1O[C@@H](n2cnc3c(N)ncnc32)[C@H](O)[C@@H]1O; details: 40 mM K-phosphate pH 7.8, 0.1 M MgCl2, 30 °C
[2] = tested on: C[C@H]1O[C@@H](n2cnc3c(N)ncnc32)[C@H](O)[C@@H]1O; details: 40 mM K-phosphate pH 7.8, 0.1 M MgCl2, 30 °C
[3] = substrate: C[C@@H](O)[C@@H](O)C(=O)COP(=O)(O)O; format: biochemical, Bacillus subtilis; details: 35 °C probably (used for weak substrates); 35.0 °C
[4] = substrate: CSC[C@@H](O)[C@@H](O)C(=O)COP(=O)(O)O; format: biochemical, Bacillus subtilis; details: 30 °C (also performed at 35 °C)
[5] = substrate: CSC[C@H]1O[C@H](OP(=O)(O)O)[C@H](O)[C@@H]1O; format: biochemical, Escherichia coli; details: 50 mM K-phosphate pH 7.8, 5 mM MgCl2, 0.3 mM CoCl2, 30 °C
[6] = substrate: C[C@H]1O[C@H](OP(=O)(O)O)[C@H](O)[C@@H]1O; format: biochemical, Escherichia coli; details: 50 mM K-phosphate pH 7.8, 5 mM MgCl2, 0.3 mM CoCl2, 30 °C
[7] = substrate: CSC[C@H]1O[C@H](OP(=O)(O)O)[C@H](O)[C@@H]1O; format: biochemical, Bacillus subtilis; details: 50 mM K-phosphate pH 7.8, 5 mM MgCl2, 0.3 mM CoCl2, 30 °C
[8] = substrate: O=P(O)(O)O[C@H]1O[C@H](CO)[C@@H](O)[C@H]1O; format: biochemical, Rhodospirillum rubrum; details: 50 mM K-phosphate pH 7.8, 5 mM MgCl2, 0.3 mM CoCl2, 30 °C

EcMtnN (Escherichia coli K-12) showed a Km [1] of 0.83 µM, a kcat [1] of 150 s⁻¹ and a kcat/Km [1] of 1.8e+08 M⁻¹ s⁻¹. For the same molecule, the Km [2] was 4.7 µM, the kcat [2] was 57 s⁻¹ and the kcat/Km [2] was 1.2e+07 M⁻¹ s⁻¹.

B1: Bs MtnB (Bacillus subtilis subsp. subtilis str. 168) (protein)
chain: MAAKQERWRELAEVKRELAERDWFPATSGNLSIKVTDEPLTFLVTASGKDKRKETVEDFLLVDQNGEPAESGHSLKPSAETLLHTHLYNKTNAGCCLHVHTVNNNVISELYGDQKKITFKGQEIIKALGLWEENAEVTVPIIENPAHIPTLAALFAEEISEDSGAVLIRNHGITAWGKTAFEAKRVLEAYEFLFSYHLKLKTLEHQLVK
For B1, the Km [3] was 315 µM, the kcat [3] was 0.053 s⁻¹ and the kcat/Km [3] was 200 M⁻¹ s⁻¹. It also gave a Km [4] of 24 µM, a kcat [4] of 16 s⁻¹ and a kcat/Km [4] of 670000 M⁻¹ s⁻¹.

B2: EcMtnA (Escherichia coli S88) (protein)
chain: MNIKGKHYRTVWVSGDGKAVEIIDQTKLPFKFEVVALTSAEMAATAIQDMWVRGAPLIGVVAAYGIALGMNHDASDMGLQRYYDLLIKTRPTAINLKWALDRMIDTLKDLCVSERKDVAWALAAEIAEEDVALCEQIGLHGAEVIREIAQKKPAGSVVNILTHCNAGWLATVDWGTALSPIYKAHENGIPVHVWVDETRPRNQGGLTAFELGSHGIPHTLIADNAGGHLMQHGDVDLCIVGTDRTTARGDVCNKIGTYLKALAAHDNHVPFYVALPSPTIDWTIEDGKSIPIEQRDGKEQSHVYGINPQGELSWVNTAPEGTRCGNYAFDVTPARYITGFITERGVCAASKSALADMFADLKSKALQGEQH
Work on B2 yielded a Km [5] of 50 µM, a kcat [5] of 0.49 s⁻¹ and a kcat/Km [5] of 9800 M⁻¹ s⁻¹. For the same molecule, the Km [6] was 222 µM, the kcat [6] was 2.02 s⁻¹ and the kcat/Km [6] was 9100 M⁻¹ s⁻¹.

B3: BsMtnA (Bacillus subtilis subsp. subtilis str. 168) (protein)
chain: MTHSFAVPRSVEWKETAITILNQQKLPDETEYLELTTKEDVFDAIVTLKVRGAPAIGITAAFGLALAAKDIETDNVTEFRRRLEDIKQYLNSSRPTAINLSWALERLSHSVENAISVNEAKTNLVHEAIQIQVEDEETCRLIGQNALQLFKKGDRIMTICNAGSIATSRYGTALAPFYLAKQKDLGLHIYACETRPVLQGSRLTAWELMQGGIDVTLITDSMAAHTMKEKQISAVIVGADRIAKNGDTANKIGTYGLAILANAFDIPFFVAAPLSTFDTKVKCGADIPIEERDPEEVRQISGVRTAPSNVPVFNPAFDITPHDLISGIITEKGIMTGNYEEEIEQLFKGEKVH
With B3 the Km [7] was 114 µM, the kcat [7] was 3.9 s⁻¹ and the kcat/Km [7] was 35000 M⁻¹ s⁻¹.

B4: RrMtnA (Rhodospirillum rubrum ATCC 11170) (protein)
chain: MNVKGTPTRTIWPAREGGAVWIIDQTRLPHEFVTQRLNDLGAVAHAIRAMLVRGAPLIGATAAYGVALGMAEDPSDEGLTRACQTLLATRPTAVNLRWAIEAMAESLAAVPPDQRAQAAWAKAGAICDEDVALNEAIGDHGLGIIKDLARTKGVEKGGEGPINILTHCNAGWLATVDWGTALAPLYKAHDAGLPIHVWVDETRPRNQGASLTAWELNSHGVPHTVIADNTGGHLMQHGLVDMVIVGTDRTTATGDVCNKIGTYLKALAAFDNAVPFYVALPGPTIDWTVNDGLREIPIEQRDAAEVTRVWGRTAAGALEWVTITPTGSPAANYAFDVTPARLITGLITERGVCAASAAGLAGLYPERAPAPVPAGSAAGKGAAATADGAL
Work on B4 yielded a kcat [8] of 0.03 s⁻¹ and a kcat/Km [8] of under 20 M⁻¹ s⁻¹.
